Data reported in patent US20260274985A1 (MYTHIC THERAPEUTICS, published 2026).

T1: Human TROP2 Protein, His Tag (Acro Biosystems) (human, UniProt P09758 27-274)
T1 construct: not shown: His tag
T1 sequence (looked up): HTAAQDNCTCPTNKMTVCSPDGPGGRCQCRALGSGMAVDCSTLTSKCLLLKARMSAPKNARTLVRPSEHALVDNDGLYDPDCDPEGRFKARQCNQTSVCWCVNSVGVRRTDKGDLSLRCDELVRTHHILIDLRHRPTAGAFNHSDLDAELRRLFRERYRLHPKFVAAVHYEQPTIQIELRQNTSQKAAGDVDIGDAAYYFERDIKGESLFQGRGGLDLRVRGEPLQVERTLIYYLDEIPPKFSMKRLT

T2: Human TROP2 Protein, His Tag (Acro Biosystems) (human, UniProt P09758 27-274)
T2 construct: Soluble analyte of the Octet assay; also called TACSTD2; not shown: His tag
T2 sequence (looked up): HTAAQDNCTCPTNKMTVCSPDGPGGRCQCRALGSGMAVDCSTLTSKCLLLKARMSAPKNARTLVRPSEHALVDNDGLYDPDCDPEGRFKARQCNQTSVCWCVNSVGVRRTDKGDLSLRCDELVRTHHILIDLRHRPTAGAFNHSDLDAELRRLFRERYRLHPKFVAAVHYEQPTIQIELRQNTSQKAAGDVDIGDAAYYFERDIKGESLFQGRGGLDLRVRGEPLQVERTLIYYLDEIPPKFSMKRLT


What was measured:
[1] = target: T1, Human TROP2 Protein, His Tag (Acro …); test: BLI (Octet) [1/2]
[2] = target: T2, Human TROP2 Protein, His Tag (Acro …); test: BLI (Octet)

Binder | binding result [1] | binding result [2]
MYT12299 (antibody, V domains shown, sacituzumab VH 32, 65 -> H) VH: QVQLQQSGSELKKPGASVKVSCKASGYTFTNHGMNWVKQAPGQGLKWMGWINTYTGEPTYTDDFHGRFAFSLDTSVSTAYLQISSLKADDTAVYFCARGGFGSSYWYFDVWGQGSLVTVSS VL: DIQLTQSPSSLSASVGDRVSITCKASQDVSIAVAWYQQKPGKAPKLLIYSASYRYTGVPDRFSGSGSGTDFTLTISSLQPEDFAVYYCQQHYITPLTFGAGTKVEIK | binds | 
MYT12326 (antibody, V domains shown, sacituzumab VH 33, 64, 66 -> H) VH: QVQLQQSGSELKKPGASVKVSCKASGYTFTNYHMNWVKQAPGQGLKWMGWINTYTGEPTYTDDHKHRFAFSLDTSVSTAYLQISSLKADDTAVYFCARGGFGSSYWYFDVWGQGSLVTVSS VL: DIQLTQSPSSLSASVGDRVSITCKASQDVSIAVAWYQQKPGKAPKLLIYSASYRYTGVPDRFSGSGSGTDFTLTISSLQPEDFAVYYCQQHYITPLTFGAGTKVEIK | binds | 
MYT12303 (antibody, V domains shown, sacituzumab VH 33, 63 -> H) VH: QVQLQQSGSELKKPGASVKVSCKASGYTFTNYHMNWVKQAPGQGLKWMGWINTYTGEPTYTDHFKGRFAFSLDTSVSTAYLQISSLKADDTAVYFCARGGFGSSYWYFDVWGQGSLVTVSS VL: DIQLTQSPSSLSASVGDRVSITCKASQDVSIAVAWYQQKPGKAPKLLIYSASYRYTGVPDRFSGSGSGTDFTLTISSLQPEDFAVYYCQQHYITPLTFGAGTKVEIK | binds | 
MYT12300 (antibody, V domains shown, sacituzumab VH 32, 66 -> H) VH: QVQLQQSGSELKKPGASVKVSCKASGYTFTNHGMNWVKQAPGQGLKWMGWINTYTGEPTYTDDFKHRFAFSLDTSVSTAYLQISSLKADDTAVYFCARGGFGSSYWYFDVWGQGSLVTVSS VL: DIQLTQSPSSLSASVGDRVSITCKASQDVSIAVAWYQQKPGKAPKLLIYSASYRYTGVPDRFSGSGSGTDFTLTISSLQPEDFAVYYCQQHYITPLTFGAGTKVEIK | binds | 
MYT12305 (antibody, V domains shown, sacituzumab VH 33, 65 -> H) VH: QVQLQQSGSELKKPGASVKVSCKASGYTFTNYHMNWVKQAPGQGLKWMGWINTYTGEPTYTDDFHGRFAFSLDTSVSTAYLQISSLKADDTAVYFCARGGFGSSYWYFDVWGQGSLVTVSS VL: DIQLTQSPSSLSASVGDRVSITCKASQDVSIAVAWYQQKPGKAPKLLIYSASYRYTGVPDRFSGSGSGTDFTLTISSLQPEDFAVYYCQQHYITPLTFGAGTKVEIK | binds | 
MYT12307 (antibody, V domains shown, sacituzumab VH 60, 62 -> H) VH: QVQLQQSGSELKKPGASVKVSCKASGYTFTNYGMNWVKQAPGQGLKWMGWINTYTGEPTHTHDFKGRFAFSLDTSVSTAYLQISSLKADDTAVYFCARGGFGSSYWYFDVWGQGSLVTVSS VL: DIQLTQSPSSLSASVGDRVSITCKASQDVSIAVAWYQQKPGKAPKLLIYSASYRYTGVPDRFSGSGSGTDFTLTISSLQPEDFAVYYCQQHYITPLTFGAGTKVEIK | binds | 
MYT12309 (antibody, V domains shown, sacituzumab VH 60, 64 -> H) VH: QVQLQQSGSELKKPGASVKVSCKASGYTFTNYGMNWVKQAPGQGLKWMGWINTYTGEPTHTDDHKGRFAFSLDTSVSTAYLQISSLKADDTAVYFCARGGFGSSYWYFDVWGQGSLVTVSS VL: DIQLTQSPSSLSASVGDRVSITCKASQDVSIAVAWYQQKPGKAPKLLIYSASYRYTGVPDRFSGSGSGTDFTLTISSLQPEDFAVYYCQQHYITPLTFGAGTKVEIK | binds | 
MYT12325 (antibody, V domains shown, sacituzumab VH 33, 64, 65 -> H) VH: QVQLQQSGSELKKPGASVKVSCKASGYTFTNYHMNWVKQAPGQGLKWMGWINTYTGEPTYTDDHHGRFAFSLDTSVSTAYLQISSLKADDTAVYFCARGGFGSSYWYFDVWGQGSLVTVSS VL: DIQLTQSPSSLSASVGDRVSITCKASQDVSIAVAWYQQKPGKAPKLLIYSASYRYTGVPDRFSGSGSGTDFTLTISSLQPEDFAVYYCQQHYITPLTFGAGTKVEIK | binds | 
MYT12314 (antibody, V domains shown, sacituzumab VH 62, 65 -> H) VH: QVQLQQSGSELKKPGASVKVSCKASGYTFTNYGMNWVKQAPGQGLKWMGWINTYTGEPTYTHDFHGRFAFSLDTSVSTAYLQISSLKADDTAVYFCARGGFGSSYWYFDVWGQGSLVTVSS VL: DIQLTQSPSSLSASVGDRVSITCKASQDVSIAVAWYQQKPGKAPKLLIYSASYRYTGVPDRFSGSGSGTDFTLTISSLQPEDFAVYYCQQHYITPLTFGAGTKVEIK | binds | 

Further lines, results first:

binding result [1] | binding result [2] | Binder
binds |  | MYT12308 (antibody, V domains shown, sacituzumab VH 60, 63 -> H) VH: QVQLQQSGSELKKPGASVKVSCKASGYTFTNYGMNWVKQAPGQGLKWMGWINTYTGEPTHTDHFKGRFAFSLDTSVSTAYLQISSLKADDTAVYFCARGGFGSSYWYFDVWGQGSLVTVSS VL: DIQLTQSPSSLSASVGDRVSITCKASQDVSIAVAWYQQKPGKAPKLLIYSASYRYTGVPDRFSGSGSGTDFTLTISSLQPEDFAVYYCQQHYITPLTFGAGTKVEIK
binds |  | MYT12304 (antibody, V domains shown, sacituzumab VH 33, 64 -> H) VH: QVQLQQSGSELKKPGASVKVSCKASGYTFTNYHMNWVKQAPGQGLKWMGWINTYTGEPTYTDDHKGRFAFSLDTSVSTAYLQISSLKADDTAVYFCARGGFGSSYWYFDVWGQGSLVTVSS VL: DIQLTQSPSSLSASVGDRVSITCKASQDVSIAVAWYQQKPGKAPKLLIYSASYRYTGVPDRFSGSGSGTDFTLTISSLQPEDFAVYYCQQHYITPLTFGAGTKVEIK
binds |  | MYT12312 (antibody, V domains shown, sacituzumab VH 62, 63 -> H) VH: QVQLQQSGSELKKPGASVKVSCKASGYTFTNYGMNWVKQAPGQGLKWMGWINTYTGEPTYTHHFKGRFAFSLDTSVSTAYLQISSLKADDTAVYFCARGGFGSSYWYFDVWGQGSLVTVSS VL: DIQLTQSPSSLSASVGDRVSITCKASQDVSIAVAWYQQKPGKAPKLLIYSASYRYTGVPDRFSGSGSGTDFTLTISSLQPEDFAVYYCQQHYITPLTFGAGTKVEIK
binds |  | MYT12313 (antibody, V domains shown, sacituzumab VH 62, 64 -> H) VH: QVQLQQSGSELKKPGASVKVSCKASGYTFTNYGMNWVKQAPGQGLKWMGWINTYTGEPTYTHDHKGRFAFSLDTSVSTAYLQISSLKADDTAVYFCARGGFGSSYWYFDVWGQGSLVTVSS VL: DIQLTQSPSSLSASVGDRVSITCKASQDVSIAVAWYQQKPGKAPKLLIYSASYRYTGVPDRFSGSGSGTDFTLTISSLQPEDFAVYYCQQHYITPLTFGAGTKVEIK
binds |  | MYT12311 (antibody, V domains shown, sacituzumab VH 60, 66 -> H) VH: QVQLQQSGSELKKPGASVKVSCKASGYTFTNYGMNWVKQAPGQGLKWMGWINTYTGEPTHTDDFKHRFAFSLDTSVSTAYLQISSLKADDTAVYFCARGGFGSSYWYFDVWGQGSLVTVSS VL: DIQLTQSPSSLSASVGDRVSITCKASQDVSIAVAWYQQKPGKAPKLLIYSASYRYTGVPDRFSGSGSGTDFTLTISSLQPEDFAVYYCQQHYITPLTFGAGTKVEIK
binds |  | MYT12301 (antibody, V domains shown, sacituzumab VH 33, 60 -> H) VH: QVQLQQSGSELKKPGASVKVSCKASGYTFTNYHMNWVKQAPGQGLKWMGWINTYTGEPTHTDDFKGRFAFSLDTSVSTAYLQISSLKADDTAVYFCARGGFGSSYWYFDVWGQGSLVTVSS VL: DIQLTQSPSSLSASVGDRVSITCKASQDVSIAVAWYQQKPGKAPKLLIYSASYRYTGVPDRFSGSGSGTDFTLTISSLQPEDFAVYYCQQHYITPLTFGAGTKVEIK
 | binds | MYT13200 (antibody, V domains shown, Sacituzumab HC-LC pairing variant; IgG) VH: QVQLQQSGSELKKPGASVKVSCKASGYTFTNHGMNWVKQAPGQGLKWMGWINTYTGEPTYTDDFKGRFAFSLDTSVSTAYLQISSLKADDTAVYFCARGGFGSSYWYFDVWGQGSLVTVSS VL: DIQLTQSPSSLSASVGDRVSITCKASQDVSIAVAWYQQKPGKAPKLLIYSASYRYTGVPDRFSGSGSGTDFTLTISSLQPEDFAVYYCHQHYITPLTFGAGTKVEIK
binds |  | MYT12315 (antibody, V domains shown, sacituzumab VH 62, 66 -> H) VH: QVQLQQSGSELKKPGASVKVSCKASGYTFTNYGMNWVKQAPGQGLKWMGWINTYTGEPTYTHDFKHRFAFSLDTSVSTAYLQISSLKADDTAVYFCARGGFGSSYWYFDVWGQGSLVTVSS VL: DIQLTQSPSSLSASVGDRVSITCKASQDVSIAVAWYQQKPGKAPKLLIYSASYRYTGVPDRFSGSGSGTDFTLTISSLQPEDFAVYYCQQHYITPLTFGAGTKVEIK
binds |  | MYT12324 (antibody, V domains shown, sacituzumab VH 33, 60, 66 -> H) VH: QVQLQQSGSELKKPGASVKVSCKASGYTFTNYHMNWVKQAPGQGLKWMGWINTYTGEPTHTDDFKHRFAFSLDTSVSTAYLQISSLKADDTAVYFCARGGFGSSYWYFDVWGQGSLVTVSS VL: DIQLTQSPSSLSASVGDRVSITCKASQDVSIAVAWYQQKPGKAPKLLIYSASYRYTGVPDRFSGSGSGTDFTLTISSLQPEDFAVYYCQQHYITPLTFGAGTKVEIK
binds |  | MYT12328 (antibody, V domains shown, sacituzumab VH 60, 64, 65 -> H) VH: QVQLQQSGSELKKPGASVKVSCKASGYTFTNYGMNWVKQAPGQGLKWMGWINTYTGEPTHTDDHHGRFAFSLDTSVSTAYLQISSLKADDTAVYFCARGGFGSSYWYFDVWGQGSLVTVSS VL: DIQLTQSPSSLSASVGDRVSITCKASQDVSIAVAWYQQKPGKAPKLLIYSASYRYTGVPDRFSGSGSGTDFTLTISSLQPEDFAVYYCQQHYITPLTFGAGTKVEIK
binds |  | MYT12316 (antibody, V domains shown, sacituzumab VH 63, 64 -> H) VH: QVQLQQSGSELKKPGASVKVSCKASGYTFTNYGMNWVKQAPGQGLKWMGWINTYTGEPTYTDHHKGRFAFSLDTSVSTAYLQISSLKADDTAVYFCARGGFGSSYWYFDVWGQGSLVTVSS VL: DIQLTQSPSSLSASVGDRVSITCKASQDVSIAVAWYQQKPGKAPKLLIYSASYRYTGVPDRFSGSGSGTDFTLTISSLQPEDFAVYYCQQHYITPLTFGAGTKVEIK
